Laboratory results: PMC8580823

Target: Full-length human Nf1-23a (neurofibromin isoform 2) (human) (UniProt P21359)
Assay: cryo-EM structure; single-particle cryo-EM of purified Nf1-23a at ~0.5 mg/ml in 20 mM Tris pH 8.0, 300 mM NaCl, 2 mM DTT, grids frozen at 4 °C; native sample and sample incubated 90 min with 50 µM ZnCl2; homodimer, no symmetry imposed (C1)
Conditions: remark: other sources report otherwise

stoichiometry N: 2
Substance: Full-length human Nf1-23a (neurofibromin isoform 2), P21359 1-2839
